Values joined by “and” are separate entries in the source; they are usually repeats but may differ in a detail not shown here. Equal values may be shown once.
T1: full length L-terminase of bacteriophage P22, purified alone for the pull-down (bacteriophage P22, UniProt P26745 1-499)
T1 sequence (looked up): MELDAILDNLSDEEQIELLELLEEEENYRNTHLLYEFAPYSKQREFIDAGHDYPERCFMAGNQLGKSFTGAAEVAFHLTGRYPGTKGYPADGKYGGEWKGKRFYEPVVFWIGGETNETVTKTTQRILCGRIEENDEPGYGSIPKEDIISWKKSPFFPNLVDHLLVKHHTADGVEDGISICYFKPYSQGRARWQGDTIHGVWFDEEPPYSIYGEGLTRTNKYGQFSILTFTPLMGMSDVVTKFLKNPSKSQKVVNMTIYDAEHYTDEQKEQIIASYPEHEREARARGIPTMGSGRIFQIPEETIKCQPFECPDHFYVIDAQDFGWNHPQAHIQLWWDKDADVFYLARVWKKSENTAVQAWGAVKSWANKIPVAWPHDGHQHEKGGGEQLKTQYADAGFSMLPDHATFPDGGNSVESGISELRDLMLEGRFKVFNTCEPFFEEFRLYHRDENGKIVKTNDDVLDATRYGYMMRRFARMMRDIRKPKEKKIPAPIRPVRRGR

T2: L-terminase ATPase domain of bacteriophage P22 (residues 1-287) (bacteriophage P22, UniProt P26745 1-287)
T2 sequence (looked up): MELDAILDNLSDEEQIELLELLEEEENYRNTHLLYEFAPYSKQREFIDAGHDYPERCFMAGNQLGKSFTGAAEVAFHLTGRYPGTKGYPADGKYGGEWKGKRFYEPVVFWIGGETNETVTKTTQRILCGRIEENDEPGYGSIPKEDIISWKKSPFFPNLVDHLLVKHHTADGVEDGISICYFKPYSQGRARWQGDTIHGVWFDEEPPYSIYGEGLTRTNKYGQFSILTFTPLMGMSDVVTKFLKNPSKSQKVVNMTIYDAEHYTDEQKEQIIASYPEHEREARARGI

T3: S-terminase (small terminase subunit) of bacteriophage P22, full length, MBP cleaved off (bacteriophage P22, UniProt P04893 1-162)
T3 sequence (looked up): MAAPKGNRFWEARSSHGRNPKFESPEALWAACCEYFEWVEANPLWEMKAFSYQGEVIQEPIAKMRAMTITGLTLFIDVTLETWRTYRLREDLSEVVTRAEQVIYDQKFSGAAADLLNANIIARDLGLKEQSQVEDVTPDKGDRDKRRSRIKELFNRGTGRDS

T4: MBP-tagged L-terminase Binding Domain of P22 S-terminase (residues 140-162) (bacteriophage P22, UniProt P04893 140-162)
T4 chain (looked up): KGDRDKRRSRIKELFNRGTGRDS

B1: GST-tagged L-terminase Binding Domain of P22 S-terminase (residues 140-162) (domain or fragment, bacteriophage P22, UniProt P04893 140-162, looked up)
chain: KGDRDKRRSRIKELFNRGTGRDS
B2: L-terminase (large terminase subunit) of bacteriophage P22, full length, co-expressed (enzyme, UniProt P26745 1-499, looked up)
chain: T1 sequence (looked up)

Experiments:
[1] = biological target: T1, full length L-terminase of …; assay: pull-down
[2] = biological target: T2, L-terminase ATPase domain of …; assay: pull-down
[3] = biological target: T3, S-terminase (small terminase subunit) …; assay: native MS
[4] = biological target: T4, MBP-tagged L-terminase Binding Domain …; assay: AUC

Binder | binding result [1] | binding result [2] | stoichiometry N [3] | stoichiometry N [4]
B1 | binds | binds | – | –
B2 | – | – | 1 L-terminase per S-terminase nonamer and 2 L-terminase per S-terminase nonamer and 3 L-terminase per S-terminase nonamer | 1 L-terminase per MBP-LBD
